Results: patent US20170029474A1
Where two headings read alike, the source gives them in different places.

How the values were obtained:
Recombinant HB-EGF [1] = target: Recombinant HB-EGF (UniProt Q99075); test: cell-based or functional assay
Recombinant HB-EGF [2] = target: Recombinant HB-EGF (UniProt Q99075); test: cell-based or functional assay; remark: listed apart in the source
[3] = target: C-terminal His-tagged HB-EGF lacking the heparin-binding domain (UniProt Q99075); test: SPR, Biacore T200, His-tagged HB-EGF captured on NTA chip
C-terminal His-tagged HB-EGF lacking the heparin-binding domain, sequence (Q99075 other isoform, or with tags, fused parts or gaps limits assumed): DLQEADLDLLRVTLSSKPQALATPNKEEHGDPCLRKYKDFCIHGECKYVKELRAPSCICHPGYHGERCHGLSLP

Recombinant HB-EGF, sequence (Q99075 63-148 limits assumed): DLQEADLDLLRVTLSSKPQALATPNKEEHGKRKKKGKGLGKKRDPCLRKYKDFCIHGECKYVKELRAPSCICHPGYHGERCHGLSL

Substance | ID50 [nM], HB-EGF-dependent growth of DER cells (Recombinant HB-EGF [1]) [nM] | DER cell assay ID50 (Recombinant HB-EGF [1]) [nM] | DER cell assay ID50 (Recombinant HB-EGF [2]) [nM] | DER cell assay Relative values (relative to CRM197) (Recombinant HB-EGF [2]) | Relative values (KA, against CRM197) (relative to CRM197) [3]
MBP-R (H520K) (from UniProt P00587 405-560) | 6 |  |  |  | 
CRM197 (from UniProt P00587 26-560) | 1.2 | 1.2 | 1.02 | 1 | 1
MBP-R (D507N) (from UniProt P00587 405-560) | 4.5 |  |  |  | 
MBP-R (V468T) (from UniProt P00587 405-560) | 6.2 |  |  |  | 
